Assay results from US20220185900A1.

B1: H4H8083P (antibody, human IgG4, V domains shown)
VH: QVQLVESGGGVVQPGRSLRLSCAASGFTFNNYVMHWVRQAPGKGLEWVALIWYDGSNKYYADSVKGRFTISRDNSKNALNLQMNSLRAEDTAVYFCARVSIAARNYYYGGLDVWGQGTTVTVSS
VL: EIVLTQSPGTLSLSPGERATLSCRASQSVSSTYLAWYQQKPGQAPRLLIYGASSRATGIPDRFSGSGSGTDFTLTISRLEPEDFAVYYCQHYGGSPLTFGGGTKVEIK
B2: H4H8084P (antibody, human IgG4, V domains shown)
VH: QVQLVESGGGVVQPGRSLRLSCEASGFTFRNYGMHWVRQAPGKGLDWVSTIYYDGSDEYYSDSVKGRFTISRDNSKNTLYLQMNSLRAEDTAVYYCARDPPSFRYFDYWGQGTLVTVSS
VL: DIQMTQSPSTLSASVGDRVTITCRASQSIRSWLTWYQQKPGKAPKVLIYKASTLERGVPSRFSGSGSGTEFTLTISSLQPEDFATYYCHQYSSYSYTFGQGTKLEIK
B3: H4H8085P (antibody, human IgG4, V domains shown)
VH: QVQLVESGGGVVQPGRSLRLSCTASGFTFDNYGMHWVRQAPGKGLEWVAVISYDGSNTFYADSVKGRFTISRDNSKNALYLQMNSLRAEDTAVYYCAKDLEFDILIGYPFDSWGRGTLVTVSS
VL: DIQLTQSPSFLSASVGDRVTITCWASQDISRYLAWYQQKPGKAPNLLIYAASTLQSGVPSRFSGSGSGTEFTLTINSLQPEDFATYYCQQLFSYPRTFGQGTKVEIK
B4: H4H8087P (antibody, human IgG4, V domains shown)
VH: QVQLVESGGGVVQPGRSLRLSCAASGFSFSSYGMHWVRQAPGKGLEWVAVMWYDGSNEYYADSVKGRFIISRDNSKSTLYLEMNSLRAEDTALYYCAREDWDEGYYYGMDVWGQGTTVTVSS
VL: DIQMTQSPSSLFASVGDRVTITCRASQDIRYDLGWYQQKPGKAPKRLIYASSILESGVPSRFSGSGSGTEYTLTISTLQSEDFAIYYCLQHNSFPWTFGQGTKVEIK
B5: H4H8080P (antibody, human IgG4, V domains shown)
VH: EVQLVESGGGLVQSGGSLRLSCVASGFTFSTYAMTWVRQAPGRGLEWVSAISGSGASTYYADSLKGRFTVSRDNSKNTLYLQMNSLRAEDTAVYYCSKDHRNYDSDYDMDVWGQGTTVTVSS
VL: DIQMTQSPSSLSASVGDRVTITCRASQGIRNYLGWYQQKPGKAPKRLIYTASSLQSGVPSRFRGSGSGTEFTLTISSLQPEDFATYYCLQHNSYPYTFGQGTKLEIK
B6: H4H7086N (antibody, human IgG4, V domains shown)
VH: QVQLVESGGGVVQPGRSLRLSCVVSGFTFSNYGMHWVRQGPGRGLEWLALIWYDGSDKYYAESVRGRFTISRDNSKNTVYLQMNSLRAEDTAMYYCTRDRIFDYWGQGTLVTVSS
VL: AIQMTQSPSSLSASVGDRVTITCRASQDIRNDLGWYQHNPGKAPNLLIYAASTLQIGVPSRFRGSGSGTDFTLTISSLQPEDFATYYCLQDFDYPLSFGGGTKVEIR

Target: human RET on cells (MCF7/SRE-Luc; HEK293/hGFRα3/hRET/SRE-Luc; HEK293/hGFRα1/hRET/SRE-Luc) (human), P07949
Assay: cell-based or functional assay

293/hGFRα3/hRET SRE-luc % Blocking	293/hGFRα3/hRET/SRE-Luc IC50	MCF7/SRE-Luc % Activation	MCF7/SRE-Luc Avg % Blocking	MCF7/SRE-luc Avg. IC50	luciferase activity in MCF7/SRE-Luc, % of the levels observed with GDNF	Internalization (% H4H8087P), HEK293/hGFRa1/hRET/SRE-Luc cells, 37 C	Binder
81%	57 nM	0%	68%	> 100 nM	–	–	B1
94%	2.1 nM	0%	100%	10.4 nM	–	–	B2
72%	127 nM	47%	0%	–	50%	–	B3
100%	0.25 nM	0%	100%	0.25 nM	–	100%	B4
57%	341 nM	0%	41%	> 100 nM	–	–	B5
–	–	–	–	–	–	59%	B6
